The source of these data is patent US20040053349A1, “Direct selection of protein complexes relevant to physiological or diagnostic context of a biological specimen” (priority 2000, published 2004).

The test system of this series is trypsin. Description: Trypsin treatment of enzyme-spiked dialyzed human serum with or without ligand solutions, then residual enzyme activity assay. The series is classed as biochemical. As to conditions: for Relative residual activity [percent of untreated], LSA: LSA (ATP, XMP, CMP, NADP, NADPH) added before treatment with trypsin; for Relative residual activity [percent of untreated], LSA + LSB: LSA and LSB both added before treatment with trypsin; for Relative residual activity [percent of untreated], LSB: LSB (glucose, L-aspartic acid, D,L-asparagine, creatine, D,L-glyceraldehyde-3-P) added before treatment with trypsin. How it is done:
2. Ligand solutions (LS) are composed as follows:
One) ATP, XMP, CMP, NADP and NADPH are included in ligand solution LSA; and
Two) Glucose, L-aspartic acid, D,L-asparagine, creatine, D,L-glyceraidehyde-3-P are included in ligand solution LSB.
2. The serum is treated with trypsin in the absence and presence of LSA or LSB, or both. At the end of the treatment samples are assayed for enzyme activity. For details see Table 1.

As to Asparaginase, the “Relative residual activity [percent of untreated], LSA” value is given as 9% of untreated; the “Relative residual activity [percent of untreated], LSA + LSB” value is 90% of untreated; the “Relative residual activity [percent of untreated], LSB” value is listed as 89% of untreated.

B1: Ribonuclease A: enzyme preparation spiked into dialyzed serum sample (protein, UniProt P61823 27-150, looked up)
Ribonuclease pancreatic: KETAAAKFERQHMDSSTSAASSSNYCNQMMKSRNLTKDRCKPVNTFVHESLADVQAVCSQKNVACKNGQTNCYQSYSTMSITDCRETGSSKYPNCAYKTTQANKHIIVACEGNPYVPVHFDASV
With B1, the “Relative residual activity [percent of untreated], LSA” value is reported as 93% of untreated; the “Relative residual activity [percent of untreated], LSA + LSB” value was 93% of untreated; the “Relative residual activity [percent of untreated], LSB” value was 11% of untreated.
